The source of these data is article PMC10388305, “Synthesis and Evaluation of a Monomethyl Auristatin E—Integrin αvβ6 Binding Peptide–Drug Conjugate for Tumor Targeted Drug Delivery” (Journal of Medicinal Chemistry, 2023).

Data set [1] has as its system BxPC-3 cells. In words: In vitro cell blocking assay, BxPC-3. Format: cell-based. Conditions: 1 h, 37 °C, n = 3. As to the method: Cell binding and internalization assay. Binding and internalization were determined as previously described. In brief, bovine serum albumin (BSA, 0.5% w/v in PBS) was used to pretreat the assay tubes to prevent non-specific binding. Aliquots of [64Cu]2 or [ 64Cu]PDC-1 (≤1 μL, 7.4-18.5 KBq in 50 μL PBS, pH = 7.4) were added to a cell suspension (3.75 × 10 6 cells in 50 μL serum free medium), incubated for 1 h at 37 °C, and gently agitated every 5 minutes (n = 3/cell line/compound). The cells were pelleted by centrifugation at 200×g for 3 min and the supernatant collected. The cell pellet was washed with 0.5 mL serum free medium and the wash medium combined with the original supernatant. […] The fraction of bound radioactivity was determined with a γ-counter (by measuring cell pellet and combined supernatants). To determine the fraction of internalized radioactivity, the cells were re-pelleted, and re-suspended in acidic wash buffer (0.2 M sodium acetate, 0.5 M sodium chloride, pH = 2.5, 300 μL, 4 °C, 5 min) to release surface bound activity, followed by a wash with PBS (300 μL). The internalized fraction was determined with a γ-counter (cell pellet vs. radioactivity released into supernatant). A Wizard 1470 or Wizard 2 2470 automatic γ-counter (Perkin-Elmer, Waltham, MA) was used to measure radioactivity samples. […]
Figure S3. […] Data are expressed as mean ± SD. […]

Data set [2] has as its system MDA-MB-435 breast cancer xenograft tumor model. Conditions: copper-64 labeled; 4 h; cited from earlier work. The text has this: (§1) Wang et al. described a similar radiolabeling approach with copper-64 to imag ...
The test system of data set [3] is glioblastoma U87MG xenograft mouse model. The conditions noted are these: cited from earlier work.
From the text: as §1

Ends that are not written are not given here.

Regarding `CC[C@H](C)[C@@H]([C@@H](CC(=O)N1CCC[C@H]1[C@H](OC)[C@@H](C)C(=O)N[C@H](C)[C@@H](O)c1ccccc1)OC)N(C)C(=O)[C@@H](NC(=O)[C@H](C(C)C)N(C)C(=O)OCc1ccc(NC(=O)[C@H](CCCNC(N)=O)NC(=O)[C@@H](NC(=O)CCOCCOCCNC(=O)CCN2C(=O)CC(SC[C@H](NC(=O)CN3CCN(CC(=O)O)CCN(CC(=O)O)CCN(CC(=O)O)CC3)C(=O)NCCOCCOCCOCCOCCOCCOCCOCCOCCOCCOCCOCCOCCOCCOCCOCCOCCOCCOCCOCCOCCOCCOCCOCCOCCOCCOCCOCCOCCC(=O)N[C@@H](CC(N)=O)C(=O)N[C@@H](C)C(=O)N[C@H](C(=O)N3CCC[C@H]3C(=O)N[C@@H](CC(N)=O)C(=O)N[C@@H](CC(C)C)C(=O)N[C@@H](CCCNC(=N)N)C(=O)NCC(=O)N[C@@H](CC(=O)O)C(=O)N[C@@H](CC(C)C)C(=O)N[C@@H](CCC(N)=O)C(=O)N[C@H](C(=O)N[C@@H](CC(C)C)C(=O)N[C@@H](C)C(=O)N[C@@H](CCC(N)=O)C(=O)N[C@@H](CCCNC(=N)N)C(=O)N[C@H](C(=O)N[C@@H](C)C(=O)N[C@@H](CCCNC(=N)N)C(=O)N[C@H](C(=O)NCCOCCOCCOCCOCCOCCOCCOCCOCCOCCOCCOCCOCCOCCOCCOCCOCCOCCOCCOCCOCCOCCOCCOCCOCCOCCOCCOCCOCCC(N)=O)[C@@H](C)O)C(C)C)C(C)C)C(C)C)C2=O)C(C)C)cc1)C(C)C` (stereo partly shown) [DOTA-PDC-1], in data set [1], the “Concentration of non-radioactive DOTA-PDC-1 required to block [64Cu]PDC-1 binding” value lay in the range of 80 to 160 nM.

As for “CDCRGDCFC (also: bicyclic or more (positions not given here)) [TNF-PDC]”, the Tumor accumulation in data set [2] was 3.94 ± 0.48 % ID/g. In data set [3] (20 h, model not stated), the Liver accumulation is listed as 16.22 ± 1.46 % ID/g. In data set [3] (copper-64 labeled, 4 h), the Tumor uptake is given as 8.11 ± 0.88 % ID/g.
